Where two headings read alike, the source gives them in different places.

Experiment [1] deals with NMDA receptor of primary cultures of rat cerebellar granule cells (rat). The experiment in a line: cell-based or functional assay.
For experiment [2], the target named is NMDA receptor of well-washed rat forebrain membranes (rat) (UniProt Q9R1M7). Description: cell-based or functional assay.
For experiment [3] the target is unchanged.
Experiment [4] shares this target. The experiment in a line: displacement of [3H]ifenprodil, polyamine-sensitive site. Background: Displacement assays read how much labelled ligand stays bound in the presence of the test substance.

NMDA receptor of well-washed rat forebrain membranes (rat), sequence (Q9R1M7 24-1135): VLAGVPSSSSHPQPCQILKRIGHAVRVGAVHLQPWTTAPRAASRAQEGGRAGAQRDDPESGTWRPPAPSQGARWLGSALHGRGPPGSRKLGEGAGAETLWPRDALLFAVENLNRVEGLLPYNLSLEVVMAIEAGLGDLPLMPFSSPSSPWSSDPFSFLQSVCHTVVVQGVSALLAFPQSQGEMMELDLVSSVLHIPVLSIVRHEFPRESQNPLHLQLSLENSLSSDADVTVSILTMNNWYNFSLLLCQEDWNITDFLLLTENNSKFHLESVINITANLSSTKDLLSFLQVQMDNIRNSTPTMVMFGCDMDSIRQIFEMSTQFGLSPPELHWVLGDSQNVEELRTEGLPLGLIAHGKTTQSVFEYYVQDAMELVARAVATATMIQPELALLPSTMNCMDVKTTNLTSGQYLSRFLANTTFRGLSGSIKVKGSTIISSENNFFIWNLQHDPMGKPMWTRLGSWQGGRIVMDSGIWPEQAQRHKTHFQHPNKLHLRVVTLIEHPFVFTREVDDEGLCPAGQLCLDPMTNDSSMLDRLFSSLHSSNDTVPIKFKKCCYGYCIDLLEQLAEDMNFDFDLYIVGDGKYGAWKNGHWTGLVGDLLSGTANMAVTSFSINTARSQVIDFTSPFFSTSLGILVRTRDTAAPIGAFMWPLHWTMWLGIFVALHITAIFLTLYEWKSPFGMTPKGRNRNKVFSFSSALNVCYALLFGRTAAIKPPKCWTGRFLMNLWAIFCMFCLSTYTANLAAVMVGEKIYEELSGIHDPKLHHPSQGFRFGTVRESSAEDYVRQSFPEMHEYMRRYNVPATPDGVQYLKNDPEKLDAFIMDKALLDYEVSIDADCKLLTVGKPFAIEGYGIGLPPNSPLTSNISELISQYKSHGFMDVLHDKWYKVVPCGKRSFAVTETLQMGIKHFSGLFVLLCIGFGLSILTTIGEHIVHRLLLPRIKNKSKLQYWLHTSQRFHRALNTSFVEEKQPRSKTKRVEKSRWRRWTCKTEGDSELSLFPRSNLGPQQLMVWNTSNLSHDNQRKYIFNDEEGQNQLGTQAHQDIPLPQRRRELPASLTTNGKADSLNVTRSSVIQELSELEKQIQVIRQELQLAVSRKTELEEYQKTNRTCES

The term IC50 denotes the point on the concentration scale where inhibition reaches its midpoint. Low values mean inhibition by little substance, high ones a need for much substance. In experiment [1], Ala7-Con-G (peptide) displayed an IC50, inhibition of NMDA-stimulated increases in cyclic GMP formation of 77 nM and a potency in the cyclic GMP assay relative to Con-G of 4 fold. Moreover, in experiment [2], the % Inh, spermine-enhanced [3H]MK-801 binding stood at 100%; the % Sti, [3H]MK-801 binding without spermine worked out at 0%; the IC50, antagonism of Gly-stimulated [3H]MK-801 binding, representative experiment was determined as 625 nM; the IC50, inhibition of spermine-enhanced [3H]MK-801 binding was 45 nM. Further, in experiment [2], the IC50, inhibition of spermine-enhanced [3H]MK-801 binding, typical experiment came out at 50 nM; the IC50, reduction of Gly stimulated [3H]MK-801 binding amounted to 500 nM; the IC50, reduction of spermine stimulated [3H]MK-801 binding stood at 45 nM; the IC (µM), inhibition of spermine-enhanced [3H]MK-801 binding was 0.046 µM. This substance came in with a potency against spermine relative to Con-G in experiment [2] of 4 fold. For the same substance, the 50% inhibitory concentration (IC50) in experiment [3] was > 2500 nM. The same substance came in with an IC50 in experiment [4] of 2500 nM.
